# Measurements as given in patent US20210130452A1.
# T1: human IL-17F (human) (UniProt Q96PD4)
# T1 sequence: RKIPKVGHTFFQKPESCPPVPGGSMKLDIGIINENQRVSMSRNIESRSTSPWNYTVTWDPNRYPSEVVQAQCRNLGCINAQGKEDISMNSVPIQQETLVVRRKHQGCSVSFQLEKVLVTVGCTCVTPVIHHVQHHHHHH
# T2: marmoset IL-17F (marmoset) (UniProt A6N6I9)
# T2 sequence (looked up): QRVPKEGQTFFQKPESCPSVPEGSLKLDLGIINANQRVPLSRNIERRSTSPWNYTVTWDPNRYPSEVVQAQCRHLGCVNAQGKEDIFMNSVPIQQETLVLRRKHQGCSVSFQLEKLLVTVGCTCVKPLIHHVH
# T3: Cynomolgus monkey IL-17F (Cynomolgus monkey) (UniProt G7P4V0)
# T3 sequence: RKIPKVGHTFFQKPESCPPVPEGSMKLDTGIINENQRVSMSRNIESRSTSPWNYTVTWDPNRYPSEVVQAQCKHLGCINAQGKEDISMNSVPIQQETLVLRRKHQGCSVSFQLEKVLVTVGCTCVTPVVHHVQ
# Assays:
# [1] = target: human serum albumin (human) (UniProt P02768); experiment: SPR (Biacore), HSA
# human IL-17A (human) [2] = target: human IL-17A (human) (UniProt Q16552); experiment: AlphaScreen IL17A-RA
# human IL-17A (human), sequence (Q16552 other isoform, or with tags, fused parts or gaps): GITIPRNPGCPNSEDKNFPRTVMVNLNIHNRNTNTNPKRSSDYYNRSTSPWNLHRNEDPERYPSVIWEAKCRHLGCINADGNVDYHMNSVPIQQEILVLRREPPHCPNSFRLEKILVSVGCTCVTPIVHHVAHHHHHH
# human IL-17F (human) [3] = target: T1, human IL-17F (human); experiment: AlphaScreen IL17F-RC
# human IL-17A (human) [4] = target: human IL-17A (human) (UniProt Q16552); experiment: AlphaScreen IL17A-RC
# human IL-17F (human) [5] = target: T1, human IL-17F (human); experiment: AlphaScreen IL17F-RA
# [6] = target: human IL-17A/F heterodimer (human) (UniProt Q16552); experiment: AlphaScreen IL17A/F-RA
# human IL-17A/F heterodimer (human), sequence (Q16552 24-155 limits assumed, one chain of several): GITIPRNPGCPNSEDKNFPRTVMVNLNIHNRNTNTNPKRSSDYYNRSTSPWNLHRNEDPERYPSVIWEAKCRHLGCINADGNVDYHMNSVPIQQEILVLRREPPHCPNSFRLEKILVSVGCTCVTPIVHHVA
# [7] = target: human IL-17A/F heterodimer (human) (UniProt Q16552); experiment: AlphaScreen IL17A/F-RC
# human IL-17A (human) [8] = target: human IL-17A (human) (UniProt Q16552); experiment: cell-based or functional assay
# [9] = target: human IL-17A/F heterodimer (human) (UniProt Q16552); experiment: cell-based or functional assay
# human IL-17F (human) [10] = target: T1, human IL-17F (human); experiment: cell-based or functional assay
# human IL-17A (human) [11] = target: human IL-17A (human) (UniProt Q16552); experiment: AlphaScreen IL17A-RA + HSA
# human IL-17F (human) [12] = target: T1, human IL-17F (human); experiment: AlphaScreen IL17F-RC + HSA
# [13] = target: human IL-17A/F heterodimer (human) (UniProt Q16552); experiment: AlphaScreen IL17A/F-RA + HSA
# [14] = target: marmoset IL-17A (marmoset); experiment: ELISA, coated IL-17A
# marmoset IL-17A (marmoset), sequence (chain, as listed by the source limits assumed): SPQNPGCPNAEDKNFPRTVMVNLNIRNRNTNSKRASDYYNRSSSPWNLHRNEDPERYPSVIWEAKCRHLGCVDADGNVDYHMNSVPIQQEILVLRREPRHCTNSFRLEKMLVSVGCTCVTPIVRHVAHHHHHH
# [15] = target: T2, marmoset IL-17F (marmoset); experiment: ELISA, coated IL-17F
# [16] = target: Cynomolgus monkey IL-17A (Cynomolgus monkey); experiment: cell-based or functional assay
# Cynomolgus monkey IL-17A (Cynomolgus monkey), sequence (chain, as listed by the source): as the sequence (Q16552 24-155 limits assumed, one chain of several) above, with T3A, P8S, N34S, I77V, N78K, P104R counted along it
# [17] = target: T3, Cynomolgus monkey IL-17F (Cynomolgus monkey); experiment: cell-based or functional assay
binder,measurement,setting,value
"IL17MS0154 (bispecific antibody, part only; not given: linkers and anti-albumin Nanobody, not shown: small tags and cut ends) chain, part: EVQLVESGGGLVQAGGSLRLSCAASGRTFSSYVVGWFRQAPGKEREFIGAISGSGDSIYYAVSEKDRFTISRDNGKNTLYLQMSSLKAEDTAVYYCTADQEFGYLRFGRSEYWGQGTQVTVSSEVQLVESGGGLVQAGGSQRLSCTASGTIVNIHVMGWYRQAPGKQRELVALIFSGGSADYADSVKGRFTISRDNAKNTVYLEMNSLKAEDTAVYYCAAEIGYYSGGTYYSSEAHWGQGTQVTVSS",koff,[1],0.0057 s⁻¹
same,IC50,human IL-17A (human) [2],0.056 nM
same,IC50,human IL-17F (human) [3],0.047 nM
"IL17MS0166 (bispecific antibody, part only; not given: linkers and anti-albumin Nanobody, not shown: small tags and cut ends) chain, part: EVQLVESGGGLVQAGGSLRLSCGAAGGTFSSYATGWFRQAPGKEREFVAVFRWSDSHTAYADSVKGRFTISRDGAKNTLYLQMSSLKPEDTAIYYCTTATRPGEWDYWGQGTQVTVSSEVQLVESGGGLVQAGGSQRLSCTASGTIVNIHVMGWYRQAPGKQRELVALIFSGGSADYADSVKGRFTISRDNAKNTVYLEMNSLKAEDTAVYYCAAEIGYYSGGTYYSSEAHWGQGTQVTVSS",koff,[1],0.0059 s⁻¹
same,IC50,human IL-17A (human) [2],0.161 nM
same,IC50,human IL-17A (human) [4],0.367 nM
same,IC50,human IL-17F (human) [5],1.09 nM
same,IC50,human IL-17F (human) [3],0.046 nM
same,IC50,[6],0.128 nM
same,IC50,[7],0.051 nM
same,"Emax, hIL-17A induced IL-6, HT-1080, 100 µM HSA",human IL-17A (human) [8],98%
same,"Emax, hIL-17A induced IL-6, HT-1080, without HSA",human IL-17A (human) [8],105%
same,"IC50, hIL-17A induced IL-6, HT-1080, 100 µM HSA",human IL-17A (human) [8],1.95 nM
same,"IC50, hIL-17A induced IL-6, HT-1080, without HSA",human IL-17A (human) [8],0.83 nM
same,"Emax, hIL-17A/F induced IL-6, HT-1080, 100 µM HSA",[9],72%
same,"IC50, hIL-17A/F induced IL-6, HT-1080, 100 µM HSA",[9],1.47 nM
same,"Emax, hIL-17F induced IL-6, HT-1080, 100 µM HSA",human IL-17F (human) [10],85%
same,"Emax, hIL-17F induced IL-6, HT-1080, without HSA",human IL-17F (human) [10],102%
same,"IC50, hIL-17F induced IL-6, HT-1080, 100 µM HSA",human IL-17F (human) [10],8.5 nM
same,"IC50, hIL-17F induced IL-6, HT-1080, without HSA",human IL-17F (human) [10],7.35 nM
same,IC50,human IL-17A (human) [11],0.203 nM
same,IC50,human IL-17F (human) [12],0.056 nM
same,IC50,[13],0.095 nM
07B11 (VHH) VHH: EVQLVESGGGLVQAGGSLRLSCVASGRAFSSYVMGWFRQAPGMEREFVALIRWSDGITGYVDSVKGRFTISRDNAKNTVYLQMNSLKPEDTAVYYCAAAVRPGDYDYWGQGTQVTVSS,OD,[14],0.186 OD
"IL17MS0110 (bispecific antibody, part only; not given: linkers and anti-albumin Nanobody, not shown: small tags and cut ends) chain, part: EVQLVESGGGLVQAGGSQRLSCTASGTIVNIHVMGWYRQAPGKQRELVALIFSGGSADYADSVKGRFTISRDNAKNTVYLEMNSLKAEDTAVYYCAAEIGYYSGGTYYSSEAHWGQGTQVTVSSEVQLVESGGGLVQAGGSLRLSCAASGRTFSSYVVGWFRQAPGKEREFIGAISGSGDSIYYAVSEKDRFTISRDNGKNTLYLQMSSLKAEDTAVYYCTADQEFGYLRFGRSEYWGQGTQVTVSS",koff,[1],0.0061 s⁻¹
same,IC50,human IL-17A (human) [2],0.045 nM
same,IC50,human IL-17F (human) [3],0.048 nM
24G10 (VHH) VHH: EVQLVESGGGLVQAGGSLRLSCGAAGGTFSSYATGWFRQAPGKEREFVAVFRWSDSHTAYADSVKGRFTISRDGAKNTLYLQMSSLKPEDTAIYYCTTATRPGEWDYWGQGTQVTVSS,OD,[14],0.122 OD
17C01 (VHH) VHH: EVQLVESGGRLVQAGGSLRLPCAASGRTFTSYPMGWFRQAPGKEREFVAAISMSGDDAAYADFVRGRFTISRDDARNTVYLHMTSLKPEDTAVYYCAARTSYDGTYDYIDDYSYWGQGTQVTVSS,OD,[15],0.0525 OD
"SH-Fc-(GS)2-13E02 (Fc fusion, not shown: a dimerising Fc or GST; small tags and cut ends) EVQLVESGGGLVQAGGSLRLSCAASGRTYDAMGWLRQAPGKEREFVAAISGSGDDTYYADSVKGRFTISKDNAGITMYLQMNSLKPEDTAVYYCATRRGLYYVWDSNDYENWGQGTQVTVSS","Emax, Cyno IL17A, HT-1080 bioassay",[16],100%
same,"IC50, Cyno IL17A, HT-1080 bioassay",[16],0.29 nM
same,"Emax, Cyno IL17F, HT-1080 bioassay",[17],87%
same,"IC50, Cyno IL17F, HT-1080 bioassay",[17],8.3 nM
"SH-Fc-(GS)2-13B03 (Fc fusion, not shown: a dimerising Fc or GST; small tags and cut ends) EVQLVESGGGSVQAGDSLRLSCAASGRANSINWFGWFRQTPGKEREFVAGIRWSDAYTEYANSVKGRFTISRDNAKNTVDLQMDSLKPEDTAVYYCVLDLSTVRYWGQGTQVTVSS","Emax, Cyno IL17A, HT-1080 bioassay",[16],98%
same,"IC50, Cyno IL17A, HT-1080 bioassay",[16],0.37 nM
same,"Emax, Cyno IL17F, HT-1080 bioassay",[17],103%
same,"IC50, Cyno IL17F, HT-1080 bioassay",[17],5 nM
